B1: Kin of IRRE-like protein 1 (Homo sapiens), Q96J84 (parent)
chain: MLSLLVWILTLSDTFSQGTQTRFSQEPADQTVVAGQRAVLPCVLLNYSGIVQWTKDGLALGMGQGLKAWPRYRVVGSADAGQYNLEITDAELSDDASYECQATEAALRSRRAKLTVLIPPEDTRIDGGPVILLQAGTPHNLTCRAFNAKPAATIIWFRDGTQQEGAVASTELLKDGKRETTVSQLLINPTDLDIGRVFTCRSMNEAIPSGKETSIELDVHHPPTVTLSIEPQTVQEGERVVFTCQATANPEILGYRWAKGGFLIEDAHESRYETNVDYSFFTEPVSCEVHNKVGSTNVSTLVNVHFAPRIVVDPKPTTTDIGSDVTLTCVWVGNPPLTLTWTKKDSNMVLSNSNQLLLKSVTQADAGTYTCRAIVPRIGVAEREVPLYVNGPPIISSEAVQYAVRGDGGKVECFIGSTPPPDRIAWAWKENFLEVGTLERYTVERTNSGSGVLSTLTINNVMEADFQTHYNCTAWNSFGPGTAIIQLEEREVLPVGIIAGATIGASILLIFFFIALVFFLYRRRKGSRKDVTLRKLDIKVETVNREPLTMHSDREDDTASVSTATRVMKAIYSSFKDDVDLKQDLRCDTIDTREEYEMKDPTNGYYNVRAHEDRPSSRAVLYADYRAPGPARFDGRPSSRLSHSSGYAQLNTYSRGPASDYGPEPTPPGPAAPAGTDTTSQLSYENYEKFNSHPFPGAAGYPTYRLGYPQAPPSGLERTPYEAYDPIGKYATATRFSYTSQHSDYGQRFQQRMQTHV

Variants of: B1
Settings: with zo1_human TJP1, Q07157
Sequence of zo1_human TJP1, Q07157 (Q07157 whole entry): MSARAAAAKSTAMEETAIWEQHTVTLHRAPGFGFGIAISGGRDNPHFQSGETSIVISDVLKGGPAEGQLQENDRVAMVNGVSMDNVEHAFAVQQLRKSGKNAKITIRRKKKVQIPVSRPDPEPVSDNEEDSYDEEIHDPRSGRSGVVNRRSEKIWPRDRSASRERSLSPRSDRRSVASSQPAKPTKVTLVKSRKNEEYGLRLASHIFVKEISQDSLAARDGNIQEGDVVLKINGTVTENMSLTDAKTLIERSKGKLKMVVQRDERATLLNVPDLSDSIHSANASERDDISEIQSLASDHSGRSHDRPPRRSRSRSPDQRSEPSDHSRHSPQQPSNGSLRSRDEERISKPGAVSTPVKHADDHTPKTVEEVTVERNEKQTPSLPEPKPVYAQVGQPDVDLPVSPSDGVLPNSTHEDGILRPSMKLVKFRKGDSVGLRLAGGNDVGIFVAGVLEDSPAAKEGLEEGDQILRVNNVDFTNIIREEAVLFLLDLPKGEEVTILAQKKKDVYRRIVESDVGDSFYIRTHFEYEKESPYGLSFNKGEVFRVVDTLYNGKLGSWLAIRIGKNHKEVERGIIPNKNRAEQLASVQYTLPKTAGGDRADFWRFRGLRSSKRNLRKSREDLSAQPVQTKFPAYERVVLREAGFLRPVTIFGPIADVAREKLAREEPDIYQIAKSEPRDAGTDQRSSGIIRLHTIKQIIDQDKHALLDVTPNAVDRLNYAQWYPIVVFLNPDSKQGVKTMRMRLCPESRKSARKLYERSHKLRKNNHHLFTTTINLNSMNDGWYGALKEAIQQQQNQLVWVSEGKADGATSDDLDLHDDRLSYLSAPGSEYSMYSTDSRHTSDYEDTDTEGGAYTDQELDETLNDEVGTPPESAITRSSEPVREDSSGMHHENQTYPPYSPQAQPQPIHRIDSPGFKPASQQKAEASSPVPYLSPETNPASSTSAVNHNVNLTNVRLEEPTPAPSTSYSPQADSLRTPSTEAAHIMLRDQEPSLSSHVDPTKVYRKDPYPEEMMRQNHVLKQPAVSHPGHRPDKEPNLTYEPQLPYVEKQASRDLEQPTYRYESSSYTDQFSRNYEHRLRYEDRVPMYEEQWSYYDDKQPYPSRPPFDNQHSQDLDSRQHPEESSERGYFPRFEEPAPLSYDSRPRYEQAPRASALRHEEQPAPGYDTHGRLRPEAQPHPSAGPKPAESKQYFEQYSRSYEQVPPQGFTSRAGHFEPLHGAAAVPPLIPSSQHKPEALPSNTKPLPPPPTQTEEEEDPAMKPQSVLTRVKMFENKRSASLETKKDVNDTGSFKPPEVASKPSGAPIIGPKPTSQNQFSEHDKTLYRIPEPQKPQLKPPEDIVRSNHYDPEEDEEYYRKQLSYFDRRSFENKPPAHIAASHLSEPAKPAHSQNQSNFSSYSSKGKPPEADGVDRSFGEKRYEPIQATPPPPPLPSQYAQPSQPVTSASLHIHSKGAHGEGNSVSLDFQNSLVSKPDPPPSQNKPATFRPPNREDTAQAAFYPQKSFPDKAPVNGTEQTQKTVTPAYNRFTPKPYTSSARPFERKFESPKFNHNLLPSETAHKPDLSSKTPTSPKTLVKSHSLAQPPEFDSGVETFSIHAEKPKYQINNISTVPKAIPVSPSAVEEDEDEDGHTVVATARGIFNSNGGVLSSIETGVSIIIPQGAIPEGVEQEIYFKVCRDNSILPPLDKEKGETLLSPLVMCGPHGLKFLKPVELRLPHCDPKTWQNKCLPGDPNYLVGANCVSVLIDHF

Variant	effect of a mutation on the interaction
K729A	decreasing interaction strength
Y730A	decreasing interaction strength

— IntAct's records for PubMed 22262837
